Assays:
ECF-FolT2 = tested on: T1, ECF-FolT2; assay: initial rate of radiolabelled uptake into proteoliposomes; assay type: biochemical, Lactobacillus delbrueckii subsp. bulgaricus; settings: 10 mM lumenal Mg-ATP, pH 7.5, 30 °C; labelled compound (3H tracer); read-out: apparent Km
T1 construct: four-subunit complex, 10xHis-TEV on EcfA, Strep on FolT2; expressed in E. coli MC1061; purified in DDM, reconstituted in proteoliposomes; ~120 kDa; Energy-coupling factor transporter transmembrane protein EcfT

ECF-PanT = tested on: T2, ECF-PanT; assay: as above; assay type: biochemical, Lactobacillus delbrueckii subsp. bulgaricus; settings: 5 mM lumenal Mg-ATP, pH 7.5, 30 °C; labelled compound (3H tracer); read-out: apparent Km
T2 construct: four-subunit complex, 10xHis-TEV on EcfA, Strep on PanT; expressed in E. coli MC1061; purified in DDM, reconstituted in proteoliposomes; ~120 kDa; Energy-coupling factor transporter transmembrane protein EcfT

[1] = substrate: Nc1ncnc2c1ncn2[C@@H]1O[C@H](COP(=O)(O)OP(=O)(O)OP(=O)(O)O)[C@@H](O)[C@H]1O; assay: initial rate of radiolabelled pantothenate uptake into proteoliposomes at varied lumenal ATP; assay type: biochemical, Lactobacillus delbrueckii; settings: 100 nM pantothenate, Mg2+, pH 7.5, 30 °C, sigmoidal, cooperative
[2] = substrate: Nc1ncnc2c1ncn2[C@@H]1O[C@H](COP(=O)(O)OP(=O)(O)OP(=O)(O)O)[C@@H](O)[C@H]1O; assay: initial rate of radiolabelled folate uptake into proteoliposomes at varied lumenal ATP; assay type: biochemical, Lactobacillus delbrueckii; settings: 100 nM folate, Mg2+, pH 7.5, 30 °C, sigmoidal, cooperative
[3] = target: T3, ECF-PanT (whole pantothenate transporter complex: EcfA, EcfA', EcfT, PanT) (Lactobacillus delbrueckii subsp. …); assay: crystal structure; ECF-PanT-Nanobody 81 complex at 5 mg/mL with 5 mM MgATPγS; 70 mM sodium citrate pH 4.5, 22% (v/v) PEG300, 5°C; 2.8 Å, space group P1, two copies of the complex in the asymmetric unit; settings: both partners purified
T3 construct: Four subunits, Mw ~120 kDa as printed for a full ECF-transporter complex; source: SEC in DDM; copies: + + +
T3 chain 1: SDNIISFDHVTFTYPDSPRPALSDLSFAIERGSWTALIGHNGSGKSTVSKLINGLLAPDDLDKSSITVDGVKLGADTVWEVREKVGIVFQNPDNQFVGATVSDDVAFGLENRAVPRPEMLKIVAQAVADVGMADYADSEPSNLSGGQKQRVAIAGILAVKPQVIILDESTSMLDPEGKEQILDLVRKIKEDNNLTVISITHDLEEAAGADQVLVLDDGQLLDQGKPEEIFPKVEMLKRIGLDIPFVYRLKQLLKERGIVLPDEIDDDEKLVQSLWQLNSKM
T3 chain 2: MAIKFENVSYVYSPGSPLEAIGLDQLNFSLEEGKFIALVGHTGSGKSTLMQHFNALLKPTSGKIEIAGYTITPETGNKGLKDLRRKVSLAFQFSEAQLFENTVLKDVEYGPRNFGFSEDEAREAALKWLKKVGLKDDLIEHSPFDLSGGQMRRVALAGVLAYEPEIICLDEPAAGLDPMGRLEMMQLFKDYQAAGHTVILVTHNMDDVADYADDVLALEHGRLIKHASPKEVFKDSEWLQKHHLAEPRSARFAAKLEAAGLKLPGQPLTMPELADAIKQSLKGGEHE
T3 chain 3: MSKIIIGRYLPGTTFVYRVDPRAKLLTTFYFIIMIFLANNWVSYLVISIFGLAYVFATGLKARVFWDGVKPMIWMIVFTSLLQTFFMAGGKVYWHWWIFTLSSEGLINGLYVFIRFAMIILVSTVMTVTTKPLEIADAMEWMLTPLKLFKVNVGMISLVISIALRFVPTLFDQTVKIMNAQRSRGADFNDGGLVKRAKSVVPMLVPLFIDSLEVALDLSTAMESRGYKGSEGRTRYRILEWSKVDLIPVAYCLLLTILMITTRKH

Q: For `Nc1nc2ncc(CNc3ccc(C(=O)N[C@@H](CCC(=O)O)C(=O)O)cc3)nc2c(=O)[nH]1` [folate], which Km (ECF-FolT2) is on record?
A: Its Km is 82 ± 20 nM.

Q: `CC(C)(CO)[C@@H](O)C(=O)NCCC(=O)O` [pantothenate] was tested. Which Km (ECF-PanT) did it give?
A: The Km was 46 ± 11 nM.

B1: ECF-PanT (Lactobacillus delbrueckii subsp. bulgaricus ATCC 11842 = JCM 1002) (protein)
chain 1: MSDNIISFDHVTFTYPDSPRPALSDLSFAIERGSWTALIGHNGSGKSTVSKLINGLLAPDDLDKSSITVDGVKLGADTVWEVREKVGIVFQNPDNQFVGATVSDDVAFGLENRAVPRPEMLKIVAQAVADVGMADYADSEPSNLSGGQKQRVAIAGILAVKPQVIILDESTSMLDPEGKEQILDLVRKIKEDNNLTVISITHDLEEAAGADQVLVLDDGQLLDQGKPEEIFPKVEMLKRIGLDIPFVYRLKQLLKERGIVLPDEIDDDEKLVQSLWQLNSKM
chain 2: MAIKFENVSYVYSPGSPLEAIGLDQLNFSLEEGKFIALVGHTGSGKSTLMQHFNALLKPTSGKIEIAGYTITPETGNKGLKDLRRKVSLAFQFSEAQLFENTVLKDVEYGPRNFGFSEDEAREAALKWLKKVGLKDDLIEHSPFDLSGGQMRRVALAGVLAYEPEIICLDEPAAGLDPMGRLEMMQLFKDYQAAGHTVILVTHNMDDVADYADDVLALEHGRLIKHASPKEVFKDSEWLQKHHLAEPRSARFAAKLEAAGLKLPGQPLTMPELADAIKQSLKGGEHE
notes: with Energy-coupling factor transporter transmembrane protein EcfT; Pantothenate ECF transporter S component PanT
Q: B1 was tested. Which Km [1] did it give?
A: Its Km is 5.6 ± 1.0 mM.

B2: ECF-FolT2 (Lactobacillus delbrueckii subsp. bulgaricus ATCC 11842 = JCM 1002) (protein)
chain 1: MSDNIISFDHVTFTYPDSPRPALSDLSFAIERGSWTALIGHNGSGKSTVSKLINGLLAPDDLDKSSITVDGVKLGADTVWEVREKVGIVFQNPDNQFVGATVSDDVAFGLENRAVPRPEMLKIVAQAVADVGMADYADSEPSNLSGGQKQRVAIAGILAVKPQVIILDESTSMLDPEGKEQILDLVRKIKEDNNLTVISITHDLEEAAGADQVLVLDDGQLLDQGKPEEIFPKVEMLKRIGLDIPFVYRLKQLLKERGIVLPDEIDDDEKLVQSLWQLNSKM
chain 2: MAIKFENVSYVYSPGSPLEAIGLDQLNFSLEEGKFIALVGHTGSGKSTLMQHFNALLKPTSGKIEIAGYTITPETGNKGLKDLRRKVSLAFQFSEAQLFENTVLKDVEYGPRNFGFSEDEAREAALKWLKKVGLKDDLIEHSPFDLSGGQMRRVALAGVLAYEPEIICLDEPAAGLDPMGRLEMMQLFKDYQAAGHTVILVTHNMDDVADYADDVLALEHGRLIKHASPKEVFKDSEWLQKHHLAEPRSARFAAKLEAAGLKLPGQPLTMPELADAIKQSLKGGEHE
notes: with Energy-coupling factor transporter transmembrane protein EcfT; Folate ECF transporter S component FolT2
Q: Which Km [2] does the source give for B2 here?
A: Its Km is 5.6 ± 1.7 mM.

B3: nanobody CA14381 (Nb81) (VHH)
VHH: QVQLVESGGGLVQPGGSLRLSCTASGFTLDDYAIGWFRQAPGKEREGISCISRSGSSTTYADSVKGRFTISRDRAENTVYLQMNSLKPEDTADYYCAATPVWYWSCAVKVGPYDYWGQGTQVTVSS
notes: the nanobody chain of PDB 6ZG3 (solved here); Llama (Lama glama) nanobody selected by phage display against ECF-PanT; Cloned in a Golden Gate variant of pMESy4 (GenBank KF415192); also called nanobody 81; Nanobody 81; source: E. coli WK6 periplasm, purified (Ni-Sepharose, desalting)
Q: Does B3 bind [3]?
A: Result: binds

Reference: publication PMC7755397, “In vitro reconstitution of dynamically interacting integral membrane subunits of energy-coupling factor transporters” (eLife, 2020)
